According to patent publication US20200132691A1, “DETECTION AND TARGETING OF TUMOR-PROMOTING NEUTROPHILS” (THE GENERAL HOSPITAL CORPORATION, priority 2017, published 2020):

How the values were obtained:
Ocn+ cells = assay: In vivo osteoblast depletion with diphtheria toxin; set-up: species or system mouse; details: OcnCre;Dtr or OcnCre;Dtr/Yfp mice; flow cytometry, immunohistochemistry, in situ microscopy, bone histomorphometry
Procedure: (§1) Ocn^Cre;Dtr, Ocn^Cre;Dtr/Yfp and control mice lacking either transgene were treated i.p. with DT (100 μl; 20 μg/kg, Sigma-Aldrich) every other day for 9 days with a total of five injections per mouse. In some experiments, osteoblast depletion was performed for 3 consecutive days using DT. For both DT treatment protocols, osteoblast depletion was verified. Body weight was monitored to control for DT-induced toxicity. Osteoblast depletion was verified using histological evaluation of femurs, IHC for osteocalcin and ex vivo whole mount immunofluorescence of Ocn^Cre;Dtr/Yfp mice.

[1] = Body weight monitoring for DT-induced toxicity; format: in vivo, mouse; details: DT-treated mice
Procedure: as §1

neutrophils = assay: Neutrophil counts in wild-type mice treated with DT; details: bone marrow
splenocytes = assay: In vitro assay of DT-mediated direct effects on hematopoietic cells (splenocytes)

Substance: diphtheria toxin [DT]
- Ocn+ cell numbers (Ocn+ cells): significantly reduced
- body weight [1]: did not affect
- neutrophil counts (neutrophils): maintained
- viability of hematopoietic cells (splenocytes; DT concentration used, in vitro DT titration and in vivo cellular staining by flow cytometry): did not affect the viability
- killing of CD11b+ myeloid cells (splenocytes; cells from OcnCre;Dtr mice, in vitro): not killed
- killing of DTR+ cells (splenocytes; positive control, in vitro): ability to kill
